Data reported in patent US8586570.

B1: PKCι (enzyme, UniProt P41743 2-596, looked up, species assumed)
Protein kinase C iota type: PTQRDSSTMSHTVAGGGSGDHSHQVRVKAYYRGDIMITHFEPSISFEGLCNEVRDMCSFDNEQLFTMKWIDEEGDPCTVSSQLELEEAFRLYELNKDSELLIHVFPCVPERPGMPCPGEDKSIYRRGARRWRKLYCANGHTFQAKRFNRRAHCAICTDRIWGLGRQGYKCINCKLLVHKKCHKLVTIECGRHSLPQEPVMPMDQSSMHSDHAQTVIPYNPSSHESLDQVGEEKEAMNTRESGKASSSLGLQDFDLLRVIGRGSYAKVLLVRLKKTDRIYAMKVVKKELVNDDEDIDWVQTEKHVFEQASNHPFLVGLHSCFQTESRLFFVIEYVNGGDLMFHMQRQRKLPEEHARFYSAEISLALNYLHERGIIYRDLKLDNVLLDSEGHIKLTDYGMCKEGLRPGDTTSTFCGTPNYIAPEILRGEDYGFSVDWWALGVLMFEMMAGRSPFDIVGSSDNPDQNTEDYLFQVILEKQIRIPRSLSVKAASVLKSFLNKDPKERLGCHPQTGFADIQGHPFFRNVDWDMMEQKQVVPPFKPNISGEFGLDNFDSQFTNEPVQLTPDDDDIVRKIDQSEFEGFEYINPLLMSAEECV
B2: PKCν (enzyme, UniProt O94806 1-890, looked up, species assumed)
Serine/threonine-protein kinase D3: MSANNSPPSAQKSVLPTAIPAVLPAASPCSSPKTGLSARLSNGSFSAPSLTNSRGSVHTVSFLLQIGLTRESVTIEAQELSLSAVKDLVCSIVYQKFPECGFFGMYDKILLFRHDMNSENILQLITSADEIHEGDLVEVVLSALATVEDFQIRPHTLYVHSYKAPTFCDYCGEMLWGLVRQGLKCEGCGLNYHKRCAFKIPNNCSGVRKRRLSNVSLPGPGLSVPRPLQPEYVALPSEESHVHQEPSKRIPSWSGRPIWMEKMVMCRVKVPHTFAVHSYTRPTICQYCKRLLKGLFRQGMQCKDCKFNCHKRCASKVPRDCLGEVTFNGEPSSLGTDTDIPMDIDNNDINSDSSRGLDDTEEPSPPEDKMFFLDPSDLDVERDEEAVKTISPSTSNNIPLMRVVQSIKHTKRKSSTMVKEGWMVHYTSRDNLRKRHYWRLDSKCLTLFQNESGSKYYKEIPLSEILRISSPRDFTNISQGSNPHCFEIITDTMVYFVGENNGDSSHNPVLAATGVGLDVAQSWEKAIRQALMPVTPQASVCTSPGQGKDHKDLSTSISVSNCQIQENVDISTVYQIFADEVLGSGQFGIVYGGKHRKTGRDVAIKVIDKMRFPTKQESQLRNEVAILQNLHHPGIVNLECMFETPERVFVVMEKLHGDMLEMILSSEKSRLPERITKFMVTQILVALRNLHFKNIVHCDLKPENVLLASAEPFPQVKLCDFGFARIIGEKSFRRSVVGTPAYLAPEVLRSKGYNRSLDMWSVGVIIYVSLSGTFPFNEDEDINDQIQNAAFMYPPNPWREISGEAIDLINNLLQVKMRKRYSVDKSLSHPWLQDYQTWLDLREFETRIGERYITHESDDARWEIHAYTHNLVYPKHFIMAPNPDDMEEDP
B3: PKCµ (enzyme, UniProt Q15139 1-912, looked up, species assumed)
Serine/threonine-protein kinase D1: MSAPPVLRPPSPLLPVAAAAAAAAAALVPGSGPGPAPFLAPVAAPVGGISFHLQIGLSREPVLLLQDSSGDYSLAHVREMACSIVDQKFPECGFYGMYDKILLFRHDPTSENILQLVKAASDIQEGDLIEVVLSASATFEDFQIRPHALFVHSYRAPAFCDHCGEMLWGLVRQGLKCEGCGLNYHKRCAFKIPNNCSGVRRRRLSNVSLTGVSTIRTSSAELSTSAPDEPLLQKSPSESFIGREKRSNSQSYIGRPIHLDKILMSKVKVPHTFVIHSYTRPTVCQYCKKLLKGLFRQGLQCKDCRFNCHKRCAPKVPNNCLGEVTINGDLLSPGAESDVVMEEGSDDNDSERNSGLMDDMEEAMVQDAEMAMAECQNDSGEMQDPDPDHEDANRTISPSTSNNIPLMRVVQSVKHTKRKSSTVMKEGWMVHYTSKDTLRKRHYWRLDSKCITLFQNDTGSRYYKEIPLSEILSLEPVKTSALIPNGANPHCFEITTANVVYYVGENVVNPSSPSPNNSVLTSGVGADVARMWEIAIQHALMPVIPKGSSVGTGTNLHRDISVSISVSNCQIQENVDISTVYQIFPDEVLGSGQFGIVYGGKHRKTGRDVAIKIIDKLRFPTKQESQLRNEVAILQNLHHPGVVNLECMFETPERVFVVMEKLHGDMLEMILSSEKGRLPEHITKFLITQILVALRHLHFKNIVHCDLKPENVLLASADPFPQVKLCDFGFARIIGEKSFRRSVVGTPAYLAPEVLRNKGYNRSLDMWSVGVIIYVSLSGTFPFNEDEDIHDQIQNAAFMYPPNPWKEISHEAIDLINNLLQVKMRKRYSVDKTLSHPWLQDYQTWLDLRELECKIGERYITHESDDLRWEKYAGEQGLQYPTHLINPSASHSDTPETEETEMKALGERVSIL
B4: PKCζ (enzyme, UniProt Q05513 1-592, looked up, species assumed)
Protein kinase C zeta type: MPSRTGPKMEGSGGRVRLKAHYGGDIFITSVDAATTFEELCEEVRDMCRLHQQHPLTLKWVDSEGDPCTVSSQMELEEAFRLARQCRDEGLIIHVFPSTPEQPGLPCPGEDKSIYRRGARRWRKLYRANGHLFQAKRFNRRAYCGQCSERIWGLARQGYRCINCKLLVHKRCHGLVPLTCRKHMDSVMPSQEPPVDDKNEDADLPSEETDGIAYISSSRKHDSIKDDSEDLKPVIDGMDGIKISQGLGLQDFDLIRVIGRGSYAKVLLVRLKKNDQIYAMKVVKKELVHDDEDIDWVQTEKHVFEQASSNPFLVGLHSCFQTTSRLFLVIEYVNGGDLMFHMQRQRKLPEEHARFYAAEICIALNFLHERGIIYRDLKLDNVLLDADGHIKLTDYGMCKEGLGPGDTTSTFCGTPNYIAPEILRGEEYGFSVDWWALGVLMFEMMAGRSPFDIITDNPDMNTEDYLFQVILEKPIRIPRFLSVKASHVLKGFLNKDPKERLGCRPQTGFSDIKSHAFFRSIDWDLLEKKQALPPFQPQITDDYGLDNFDTQFTSEPVQLTPDDEDAIKRIDQSEFEGFEYINPLLLSTEESV

Tested on: PKCα-S10

Row | Protein | phosphorylation activity (1 µM peptide, 2 ng kinase)
1 | B1 | very little activity is detected with PKCε, PKCζ, PKCη and PKCι
2 | B2 | no activity is observed with PKCδ, PKCµ, and PKCν
3 | B3 | no activity is observed with PKCδ, PKCµ, and PKCν
4 | B4 | very little activity is detected with PKCε, PKCζ, PKCη and PKCι
